Molecular target: FGF23 receptor
Assay: cell-based or functional assay

Egr-1-luciferase reporter activity, fold change at about 0.6 nM purified fusion, with heparin (20 µg/ml): 2 fold change
Egr-1-luciferase reporter activity, fold change at about 1.21 nM purified fusion, no heparin: 1.2 fold change
Egr-1-luciferase reporter activity, fold change at about 19.3 nM purified fusion, no heparin: 2.4 fold change
Substance: sKlotho-FGF23-6×His fusion polypeptide

Reference: patent US20180037623A1
